Reference: the nanobody polyreactivity screen of Harvey et al. (2022)

Experiment: yeast display, Sf9 membrane polyspecificity reagent, FACS + sequencing; frameworks hold sequencing errors
Summary of the method: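 Galactose induction of a Saccharomyces cerevisiae BJ5465 synthetic nanobody display library ran 36–48 hours. The cells were then stained for 1 hour at 4 °C with 10% biotinylated, detergent-solubilized Sf9 membrane reagent, pulled down on streptavidin microbeads and FACS-sorted into low and high (top ~1%) gates on expression and reagent-binding fluorescence. Labels for polyreactivity follow the gate of origin.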
For “QVQLQESGGGLVQAGGSLRLSCAASGNIFEADIMGWNHQAQGKERELVASITDGGSTNYADSVKGRFTINRDNAKNNVYLQMNSLKPEDTAVYYCAAFAYPDIPTYFDYDIFTYWGQGTQVTVSS”, the “polyreactivity (PSR sort gate)” value was “high polyreactivity”.
In the case of “QVQLQESGGGLVQAGGSLRLSCAASGNIFEADIMGWYHQAQGKERELVASITDGGSTNYADSVKGRFTINRDNAKNNVYLQMNSLKPADTAVYYCAAIAYPDIPTYFDYDSDYFYWGQGTQVTVSS”, the “polyreactivity (PSR sort gate)” value is reported as “high polyreactivity”.
In the case of “QVQLQESGGGLVQAGGSLRLSCAASGNIFLGDTMGWYRQAPGKEREFVAAIARGGNPYYADSVKGRFTISRNNANNTVYLQKNSLKTEDTAVHYCAVQRSHASDYNYWCQGTQVTVSS”, the “polyreactivity (PSR sort gate)” value is reported as “low polyreactivity”.
In the case of “QVQLQESGGGLVQAGGSLRLSCAASGNISPQLYMGWYRQAQGKEREFVAAIAEGSTTYYAESVKGRFTISRDDAKNTVYLQINSLKSEDTAVYYCAARYENAESFYYWGQGSQVTVSS”, the “polyreactivity (PSR sort gate)” value is reported as “high polyreactivity”.
In the case of “QVQLQESGGGLVQAGGSLRLSCAASGNISQVGVMGWYRQAPGKERELVATINFGGSSYYADSVKGRFTISRDNAKITVYLQMNSLKPEDTAVSYCNAKAYVWYLYDEFGYWGQGTQVTVSS”, the “polyreactivity (PSR sort gate)” value is reported as “low polyreactivity”.
In the case of “QVQLQESGGGLVQAGGSLRLSCAASGNISVTGFMGWYRQAPGKERELVASIGIGGTTYYADSVKGRFSISRDNAKNTVYLQMNSLKPEDTAVYYCAARYLYYAYSYWGQATQVTVSS”, the “polyreactivity (PSR sort gate)” value is reported as “low polyreactivity”.
In the case of “QVQLQESGGGLVQAGGSLRLSCAASGNIVDADIMGWYRQAPGKERELVASITDGGSTNYADSVKGRFTISRDNAKNTVYLQMNSLKPEDTAVYYCAAIAYPDIPTYFDYDSEYFYWGQGTQVTVSS”, the “polyreactivity (PSR sort gate)” value is reported as “low polyreactivity”.
For “QVQLQESGGGLVQAGGSLRLSCAASGNIVVADIMGWYRQAPGKERELVASITDGGSTNYADNVKGRFTISRDNAKNTVYLQMNSLIPEDTAVYYCAANAFPDIPTYFVYDYDYFYWGQGTQVTVSG”, the “polyreactivity (PSR sort gate)” value was “high polyreactivity”.
For “QVQLQESGGGLVQAGGSLRLSCAASGSIARYYDMGWYLQAPGKEREFVAGISGGAISYYADSVKGRLTISRDNAKNTVYLQMNSLKPEDTAVYYCAADTCVYQYHSYWGQGTQVTVSS”, the “polyreactivity (PSR sort gate)” value was “low polyreactivity”.
In the case of “QVQLQESGGGLVQAGGSLRLSCAASGSIFEELDMGWYRQAPGKEREFVAAIGTGSTTYYADSVKGRFTISRDNAKNTVYLQMNSLKPEDTAVYYCAVTYSVYLPFRYWGQGTQVTVSS”, the “polyreactivity (PSR sort gate)” value is reported as “high polyreactivity”.
With “QVQLQESGGGLVQAGGSLRLSCAASGSIFHLHIMCWYRQAPGKERESVAAISNGTSTYYADSVKGRFTICRDNAKNTVYLQMNSPKPDDTAVYYCAALFLVSKHHHYWGEGTQVTVSS” the “polyreactivity (PSR sort gate)” value was “low polyreactivity”.
With “QVQLQESGGGLVQAGGSLRLSCAASGSIIEELDMAWYRQAPGKEREFVAAIGTGSTTYYADSVKGRFTSSRDNAKNTVYLQMNSLKPEDTAVYYCAVTYSVYLPFRYWGQGTQVTVSS” the “polyreactivity (PSR sort gate)” value was “high polyreactivity”.
With “QVQLQESGGGLVQAGGSLRLSCAASGSISGPHVMGWSRQAPGKEREFVAAINVGANTYYADNVKGRFTISRDNAKNTVYLRMNSLKPEDTAVYYCAAVYYGDIGHEYWGQGTQVTVSC” the “polyreactivity (PSR sort gate)” value was “low polyreactivity”.
For “QVQLQESGGGLVQAGGSLRLSCAASGSISGPHVMGWYRQAPGKEREFVAAINVGANTYYADNVKGRFTISRDNAINTVYLQMNSLKTEDTAVYYCAAVYYGDIGHEYWGQGTQVTVSC”, the “polyreactivity (PSR sort gate)” value was “low polyreactivity”.
With “QVQLQESGGGLVQAGGSLRLSCAASGSISGPHVMGWYRQAPGKVREFVAAINVGANTYYADNVKGRFTISRDNAKNTVYLQMNSLKPEDTAVYYCAAAYYGDIGHEYWGQGTQVTVSS” the “polyreactivity (PSR sort gate)” value was “low polyreactivity”.
With “QVQLQESGGGLVQAGGSLRLSCAASGSISHYIFMGWYRQAPGKQREFVAGIGYGGTTNYADSVKGRFTISRDNAKNTVYLQRNSLKPEDTGMYYCAAREATEFYLYYWGQGTQVTVSS” the “polyreactivity (PSR sort gate)” value was “low polyreactivity”.
In the case of “QVQLQESGGGLVQAGGSLRLSCAASGSISILQSMGWYRQAPGKERELVAGINWGATTYYADSVKGRLTTSRDYAKNTVYLQLNSLKPEDTGVYYCAFQTYFTYPLLYWGQGTQVNVSS”, the “polyreactivity (PSR sort gate)” value is reported as “low polyreactivity”.
